Experimental data from US9580508B2, “Bispecific EGFR/c-Met antibodies” (Janssen Biotech, Inc., priority 2012, dated 2017).
Where a chain is given by its changes, count along the chain named.

B1: P54AR4-83: EGFR-binding FN3 domain, SEQ ID NO: 25 (protein)
chain: LPAPKNLVVSEVTEDSLRLSWDDPWAFYESFLIQYQESEKVGEAINLTVPGSERSYDLTGLKPGTEYTVSIYGVHNVYKDTNMRGLPLSAEFTT
modifications: EGFR binding FN3 domain
B2: P54AR4-37: EGFR-binding FN3 domain, listed with SEQ ID NO: 22 in Table 6 (protein)
chain: B1 chain with D22T, D23W, W25Y, F27D, Y28L, E29D
modifications: EGFR binding FN3 domain
B3: P54AR4-37v2: stabilized EGFR-binding FN3 domain, SEQ ID NO: 29 (protein)
chain: B1 chain with D22T, D23W, W25Y, F27D, Y28L, E29D
modifications: EGFR binding FN3 domain
B4: P54CR4-31: EGFR-binding FN3 domain, SEQ ID NO: 26 (protein)
chain: LPAPKNLVVSEVTEDSLRLSWTAPDAAFDSFLIQYQESEKVGEAINLTVPGSERSYDLTGLKPGTEYTVSIYGVLGSYVFEHDVMLPLSAEFTT
modifications: EGFR binding FN3 domain
B5: P54CR4-31v2: stabilized EGFR-binding FN3 domain, SEQ ID NO: 28 (protein)
chain: B4 chain with L17A, N46V, E91I
modifications: EGFR binding FN3 domain
B6: P114AR7P92-G8: c-Met-binding FN3 domain, SEQ ID NO: 36 (protein)
chain: LPAPKNLVVSRVTEDSARLSWTAPDAAFDSFVIRYFEFLGSGEAIVLTVPGSERSYDLTGLKPGTEYVVQILGVKGGYISIPLSAIFTT
modifications: c-Met binding FN3 domain
B7: P114AR7P93-H9: c-Met-binding FN3 domain, SEQ ID NO: 40 (protein)
chain: B6 chain with V32W, L72I, Y78H, I81L
modifications: c-Met binding FN3 domain
B8: P114AR7P94-E5: c-Met-binding FN3 domain, SEQ ID NO: 42 (protein)
chain: B6 chain with V32W, V68A, Q70N, L72M, Y78R, I79V, I81V
modifications: c-Met binding FN3 domain
B9: P114AR7P93-G8: c-Met-binding FN3 domain, SEQ ID NO: 39 (protein)
chain: B6 chain with V32W, G60D, V68G, Q70T, L72N, Y78R, I79V, I81T
modifications: c-Met binding FN3 domain
B10: P114AR7P94-A3: c-Met-binding FN3 domain, SEQ ID NO: 41 (protein)
chain: B6 chain with V32W, Q70N, L72M, Y78K, I81P
modifications: c-Met binding FN3 domain
B11: P114AR7P95-F10: c-Met-binding FN3 domain, SEQ ID NO: 47 (protein)
chain: B6 chain with V32W, L39T, G40T, S41A, Q70N, L72M, Y78S, I81P
modifications: c-Met binding FN3 domain
B12: P114AR7P92-F6: c-Met-binding FN3 domain, SEQ ID NO: 35 (protein)
chain: B6 chain with V32W, Q70N, Y78G, I79L, I81V
modifications: c-Met binding FN3 domain
B13: P114AR7P92-H5: c-Met-binding FN3 domain, SEQ ID NO: 37 (protein)
chain: B6 chain with V32W, F36L, G40L, S41G, L72M, Y78T, I79V, I81P
modifications: c-Met binding FN3 domain
B14: P114AR7P95-H8: c-Met-binding FN3 domain, SEQ ID NO: 49 (protein)
chain: B6 chain with V32W, L39V, G40S, S41K, Q70N, L72M, Y78S, I81P
modifications: c-Met binding FN3 domain
B15: P114AR7P95-D4: c-Met-binding FN3 domain, SEQ ID NO: 45 (protein)
chain: B6 chain with V32W
modifications: c-Met binding FN3 domain
B16: P114AR5P74-A5: c-Met-binding FN3 domain, SEQ ID NO: 32 (protein)
chain: B6 chain with V32W, F36D, F38V, L39V, G40V, S41G, V68Y, Q70N, Y78S, I81V
modifications: c-Met binding FN3 domain
B17: P114AR7P95-G7: c-Met-binding FN3 domain, SEQ ID NO: 48 (protein)
chain: B6 chain with V32W, F38L, G40S, S41T, Q70N, L72M, Y78S, I81P
modifications: c-Met binding FN3 domain
B18: ECB94: bispecific FN3: P54AR4-83v22-(AP)5-P114AR7P94-A3v22, SEQ ID NO: 61 (protein)
chain: MLPAPKNLVVSEVTEDSARLSWDDPWAFYESFLIQYQESEKVGEAIVLTVPGSERSYDLTGLKPGTEYTVSIYGVHNVYKDTNIRGLPLSAIFTTAPAPAPAPAPLPAPKNLVVSRVTEDSARLSWTAPDAAFDSFWIRYFEFLGSGEAIVLTVPGSERSYDLTGLKPGTEYVVNILGVKGGKISPPLSAIFTT
modifications: bispecific EGFR/cMet binding molecule
B19: ECB96: bispecific FN3: P54AR4-83v22-(AP)5-P114AR9P122-A7v2, SEQ ID NO: 63 (protein)
chain: B18 chain with L144V, G145S, S146K, E148D, K183S
modifications: bispecific EGFR/cMet binding molecule
B20: ECB97: bispecific FN3: P54AR4-83v22-(AP)5-P114AR7P95-C5v2, SEQ ID NO: 64 (protein)
chain: B18 chain with G178S, K183S
modifications: bispecific EGFR/cMet binding molecule
B21: ECB109: bispecific FN3: P54AR4-83v23-(AP)5-P114AR7P95-C5v2, SEQ ID NO: 68 (protein)
chain: B18 chain with W26H, G178S, K183S
modifications: bispecific EGFR/cMet binding molecule
B22: ECB107: bispecific FN3: P54AR4-83v23-(AP)5-P114AR9P121-A6v2, SEQ ID NO: 66 (protein)
chain: B18 chain with W26H, L144V, K183S
modifications: bispecific EGFR/cMet binding molecule
B23: ECB95: bispecific FN3: P54AR4-83v22-(AP)5-P114AR9P121-A6v2, SEQ ID NO: 62 (protein)
chain: B18 chain with L144V, K183S
modifications: bispecific EGFR/cMet binding molecule
B24: ECB108: bispecific FN3: P54AR4-83v23-(AP)5-P114AR9P122-A7v2, SEQ ID NO: 67 (protein)
chain: B18 chain with W26H, L144V, G145S, S146K, E148D, K183S
modifications: bispecific EGFR/cMet binding molecule
B25: ECB15: bispecific FN3: P54AR4-83v2-(AP)5-P114AR7P94-A3, SEQ ID NO: 57 (protein)
chain: B18 chain with I84M, L177M
modifications: bispecific EGFR/cMet binding molecule
B26: ECB106: bispecific FN3: P54AR4-83v23-(AP)5-P114AR7P94-A3v22, SEQ ID NO: 65 (protein)
chain: B18 chain with W26H
modifications: bispecific EGFR/cMet binding molecule

System: not listed separately
Test: Differential scanning calorimetry in PBS (thermal stability)
Format: physicochemical
Conditions: DSC in PBS
Source text: A subset of the EGFR binding FN3 domains was engineered to increase the conformational stability of each molecule. […] The new mutants, P54AR5-83v2, P54CR431-v2, and P54AR4-37v2 were expressed and purified as described above. Differential scanning calorimetry in PBS was used to assess the stability of each mutant in order to compare it to that of the corresponding parent molecule.
Thermal Stability of c-Met-binding FN3 Domains Differential Scanning Calorimetry in PBS was Used to Assess the Stability of Each FN3 Domain.

| Molecule | Tm (° C.) | Thermal Stability (Tm, C.) |
| --- | --- | --- |
| B1 | 50.6 °C |  |
| B2 | 45.9 °C |  |
| B3 | 64.2 °C |  |
| B4 | 60.9 °C |  |
| B5 | 78.9 °C |  |
| B6 |  | 90.9 C. |
| B7 |  | 88.2 C. |
| B8 |  | 80 C. |
| B9 |  | 76.8 C. |
| B10 |  | 86.2 C. |
| B11 |  | 85.2 C. |
| B12 |  | 76.8 C. |
| B13 |  | 87 C. |
| B14 |  | 83 C. |
| B15 |  | 85.3 C. |
| B16 |  | 74.1 C. |
| B17 |  | 87.2 C. |

System: NCI-H292 cells
Test: HGF-induced NCI-H292 cell proliferation
Format: cell-based, human
Conditions: read-out: H292-HGF Proliferation inhibition in HGF-induced H292 cells (IC50)
Source text: The proliferation assay was completed using different combinations EGFR and c-Met binding FN3 domains either as a mixture or linked in a bispecific format. […] This confirmed that the avidity effect observed at the level of the receptors (FIG. 4 and FIG. 5) translates into an improvement in inhibiting cell signaling (Table 12) and cell proliferation (Table 13).
Select bispecific EGFR/c-Met molecules were characterized for their affinity to both EGFR and c-Met, their ability to inhibit EGFR and c-Met autophosphorylation, and their effect on proliferation of HGF cells. Binding affinity of the bispecific EGFR/c-Met molecules to recombinant EGFR and/or c-Met extracellular domain was further evaluated by surface Plasmon resonance methods using a Proteon Instrument (BioRad) according to protocol described in Example 3.

| Molecule | IC50 |
| --- | --- |
| B18 | 29.6 nM |
| B19 | 9480 nM |
| B20 | 31 nM |
| B21 | 574 nM |
| B22 | 2640 nM |
| B23 | 383 nM |
| B24 | 11400 nM |
| B25 | 23 nM |
| B26 | 484 nM |
